Data published in FireProtDB (doi:10.1016/s0167-4838(99)00132-6).

Conditions: Oryctolagus cuniculus; pH 6; Thermal; DSC; KH2PO4-KOH 10 mM; reversible: no

Chain of Glyceraldehyde-3-phosphate dehydrogenase wild type, P46406 (P46406 whole entry): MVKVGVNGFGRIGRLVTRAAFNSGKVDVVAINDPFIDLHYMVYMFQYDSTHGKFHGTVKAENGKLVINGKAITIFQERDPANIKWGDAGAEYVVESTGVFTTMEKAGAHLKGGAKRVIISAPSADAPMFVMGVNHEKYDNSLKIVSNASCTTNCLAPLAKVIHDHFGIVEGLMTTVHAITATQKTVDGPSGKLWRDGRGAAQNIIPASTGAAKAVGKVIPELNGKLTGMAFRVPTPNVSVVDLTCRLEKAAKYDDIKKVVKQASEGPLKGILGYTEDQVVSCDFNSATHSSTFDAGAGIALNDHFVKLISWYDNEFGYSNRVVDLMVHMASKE

Substance: Glyceraldehyde-3-phosphate dehydrogenase wild type, P46406
- Tm: 68.9 °C
- unfolding enthalpy (calorimetric): 693 kcal/mol
